PMC7781312 (bioRxiv, 2021)

Biological target: prefusion-stabilized SARS-CoV S ectodomain trimer (SARS-CoV 2P S) (SARS-CoV Urbani (AAP13441), UniProt P59594, stabilised)
Assay: BLI

B1: B6 monoclonal antibody (recombinant IgG with human constant regions) (antibody, V domains shown)
VH: EVQLQQSGPVLVKPGASVRMSCKASGYTITDYYLNWVKQSHGKSLEWLGVLNPYSGGSLYSQTFKGKATLTVDRSSSTAYLELNSLTSEDSAVYYCARQLGRGNGLDYWGQGTSVTVSS
VL: NIMMTQSPSSLAVSAGEKVTMSCKSSQSVLHSSDQKNYLAWYQQKPGQSPKLLIYWASTRESGVPDRFTGSGSGTDFTLTISSVQAEDLAVYFCHQYLSSYTFGGGTKLEIK
B1: binds.
